Source: US20180002740

System: VanR (phosphorylated) (Streptomyces coelicolor M600)
Experiment: cell_activity
Settings: indirect: growth arrest about 18 h with 20 ug/ml vancomycin; 64 pM little effect

## ATATCTATATGAAGCGACGTGGTCGATGAGCCGCAGCGTTTTCGCTGCGGCTCATCGACCACGTCGCTTCATATAGATATAGTTTTCT [vanH5 dumbbell decoy]
  activity: 256 pM
